In PMC9985226, “A fully human connective tissue growth factor blocking monoclonal antibody ameliorates experimental rheumatoid arthritis through inhibiting angiogenesis” (BMC Biotechnology, 2023):
Numbering of substitutions follows the chain as printed.

B1: anti-CTGF scFv B2 (scFv, V domains shown)
VH: QVQLVQSGAEVKKPGESLKISCKGSGYKFTSYWIAWVRQMPGKGLEWMGIIYPGGSDTRYSPSFQGQVTISDDRSSSTTYLQWSSLKASDTAIYYCARSGELMDVWGQGTTVTVSS
VL: SYVLTQPPSVSVSPGQTVSITCSGDKLGNKYASWYQQRPGQSPILVIYQDTKRPSGIPERFSGSNSGNTATLTISGTQAMDEADYYCQAWDSNTAFFGTGTKVTVL
notes: VH of scFv B2; the classical (Gly4Ser)3 linker between VH and VL; VL of scFv B2; Order VH-linker-VL as in the library construction; Selected from a fully human phage library made from PBMCs of RA patients; also called parental scFv B2; source: E. coli (pET28a, IPTG induced), purified (Ni Sepharose)
B2: anti-CTGF IgG mut-B2 (antibody, V domains shown)
VH: B1 VH with S99L, E101G, L102A
VL: B1 VL with V103L
notes: heavy chain: VH of m3 with human IgG1 constant region; light chain: VL of m3 with antibody constant region; Human IgG1 format; also called full-length antibody IgG mut-B2; source: ExpiCHO, transiently expressed, purified from supernatant (Protein G Sepharose); copies: 2 + 2
B3: mut-scFv B2 (scFv, V domains shown)
VH: B1 VH with S99L, E101G, L102A
VL: B1 VL
notes: VH of mut-scFv B2; as the VH of m2 with three changes in VH-CDR3; the classical (Gly4Ser)3 linker between VH and VL; VL as the VL of m2; source: E. coli (pET28a, IPTG induced), purified (Ni Sepharose)

Experiments:
[1] = target: T1, recombinant human connective tissue growth factor (CTGF) (Homo sapiens, UniProt P29279); assay: cell-based or functional assay
[2] = target: T1, recombinant human connective tissue …; assay: SPR; Biacore T200; CTGF amine-coupled on a CM5 chip; scFvs or IgG in running buffer PBS pH 7.4 flowed for 3 min at 10 µl/min, 5 min dissociation, regeneration with 1 M NaCl; conditions: both partners purified

T1 sequence (P29279 27-349): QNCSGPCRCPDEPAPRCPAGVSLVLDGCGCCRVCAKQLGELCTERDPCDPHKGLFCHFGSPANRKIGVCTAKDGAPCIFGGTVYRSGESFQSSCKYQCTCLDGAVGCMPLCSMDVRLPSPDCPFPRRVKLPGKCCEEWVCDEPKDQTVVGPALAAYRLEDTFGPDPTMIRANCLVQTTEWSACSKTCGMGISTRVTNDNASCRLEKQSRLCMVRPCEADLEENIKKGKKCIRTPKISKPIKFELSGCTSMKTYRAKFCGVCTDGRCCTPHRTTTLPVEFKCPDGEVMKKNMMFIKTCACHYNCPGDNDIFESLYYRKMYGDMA

Binder | EC50 of inhibition of CTGF-induced HUVEC proliferation, CCK-8 assay, scFv 1-500 nM [1] [nM] | Kd [2] [nM] | koff [2] [s⁻¹] | kon [2] [M⁻¹ s⁻¹]
B1 | 37.4 | 252 | 0.00574 | 22800
B2 | – | 0.782 | 0.00365 | 4.67e+06
B3 | 27.5 | 1.96 | 0.00222 | 1.13e+06
